# Experimental data from the RNAGym collection of RNA variant scans (doi:10.7554/elife.80360).
# B1: CPEB3 Ribozyme (parent)
# chain: GGGGGCCACAGCAGAAGCGUUCACGUCGCGGCCCCUGUCAGAUUCUGGUGAAUCUGCGAAUUCUGCUGU
# Variants of: B1
# Test: self-cleavage, relative activity (ratio to wild type); higher = more cleavage; co-transcriptional
row,Variant,self-cleavage
1,G50C A59C,0.68
2,G50A U67A,0.989
3,A52G U64A,0.911
4,A52G U64C,0.912
5,A52G U64G,0.957
6,G50U U64A,0.954
7,A51U G65U,0.765
8,A51U G65A,0.889
9,G50A G65U,0.882
10,G50A G65A,0.901
11,A52C C63U,0.973
12,A52C C63G,0.688
13,G50A C63A,0.856
14,G50A C63G,0.859
15,A51U C54U,0.932
16,A51U C54G,0.677
17,A51G U55C,0.839
18,A51G U55G,0.63
19,A52C C66U,0.912
20,A52C C66G,0.782
21,A52C C66A,0.68
22,U49G U64A,0.985
23,A51C U69A,1.05
24,A51C U69G,1.01

row,Variant,self-cleavage
1,A51C U69C,1.08
2,A51G U64G,0.917
3,A51G U64C,0.949
4,A51G U64A,0.991
5,U49G U55G,0.819
6,U49G U55C,0.814
7,A51C A52G,0.914
8,A51C A52C,0.949
9,U49G U69G,1.02
10,G50A G56A,0.909
11,G50U A51U,0.995
12,G50U A51G,1.01
13,A51C U64C,0.787
14,A51C U64A,0.866
15,G50U C57A,0.355
16,G50U C57U,0.366
17,G50U C57G,0.264
18,G50A A60G,1.02
19,G50A A60U,0.449
20,G50A A60C,0.369
21,G50A A59G,1.02
22,G50A A59U,0.834
23,U49G A59C,0.68
24,A51U C57G,0.238

row,Variant,self-cleavage
1,A51U C57U,0.388
2,A51C A59U,0.742
3,A51C A59G,0.96
4,A51C A59C,0.658
5,A51U U69G,1.06
6,A51U U69C,1.07
7,A51U U69A,1.01
8,A52G C57U,0.407
9,A52G C57G,0.23
10,U49G C54U,0.972
11,A51U A52G,0.982
12,A51U A52C,0.969
13,U49G A60G,0.948
14,U49G A60U,0.432
15,G50U A60U,0.515
16,A52C U55G,0.56
17,A52C U55C,0.686
18,A52C U55A,0.631
19,G50C U67C,0.994
20,G50C U67G,1.02
21,A51G U61G,0.85
22,A51G U61A,0.833
23,A51C A60G,0.85
24,A51C A60U,0.468

row,Variant,self-cleavage
1,A52C A60U,0.476
2,A51U C66G,0.752
3,A51U C66U,0.981
4,A51U C66A,0.706
5,G50U U69A,0.99
6,G50U U69C,1.09
7,G50U U69G,1.05
8,G50A U64A,0.937
9,A51U U53C,0.863
10,A51U U53G,0.825
11,A52C G56C,0.536
12,A52C G56U,0.741
13,G50U G65A,0.953
14,U49G U61C,0.802
15,U49G U61A,0.921
16,A51C U61A,0.813
17,A51U G58U,0.954
18,A52C U53A,0.936
19,A52C U53C,0.806
20,A52G G58U,1
21,A52G G58A,0.926
22,G50A C66U,1.01
23,A51G U67C,0.99
24,A51G U67G,1.01

row,Variant,self-cleavage
1,A51G U67A,0.967
2,U49G G58A,0.912
3,A51G U53G,0.839
4,A51G U53A,0.981
5,A51G U53C,0.899
6,A52C U61G,0.67
7,A52C U61C,0.759
8,A52C U61A,0.893
9,A51G U69A,0.995
10,A51G U69G,1.03
11,A52G C54A,0.931
12,A52G C54U,1.02
13,A52G U61C,0.879
14,A51C G58C,0.957
15,A51C G58U,1.03
16,A51C G58A,0.92
17,G50C U69A,0.978
18,G50C U69G,1.06
19,G50C A52C,0.946
20,G50C A52G,0.985
21,G50A U61A,0.862
22,G50A U61C,0.799
23,G50C U55A,0.794
24,G50C U55C,0.486

row,Variant,self-cleavage
1,G50C U55G,0.685
2,A51U U61A,0.932
3,A51U U61G,0.772
4,U49G C57A,0.425
5,U49G C57U,0.282
6,U49G C57G,0.284
7,A51C U67G,0.993
8,A51C U67A,0.961
9,G50A U69C,1.07
10,G50A U69G,1.06
11,G50C U64G,0.844
12,G50C U64C,0.823
13,A52C U62C,0.811
14,A52C U62A,0.882
15,G50C C57U,0.384
16,G50C C57A,0.366
17,U49G G50A,1.02
18,G50A U53C,0.949
19,G50A U53G,0.9
20,A51G C54U,0.986
21,A51G C54G,0.858
22,A51G C54A,0.854
23,A51G U62C,0.884
24,A51G U62A,0.98

row,Variant,self-cleavage
1,A51G U62G,0.89
2,G50C U53G,0.654
3,G50C U53C,0.866
4,G50C G65C,0.585
5,G50C G65A,0.885
6,A51G G58C,1.01
7,A51G G58U,1.01
8,G50C A60U,0.456
9,G50C A60C,0.34
10,A51G C57U,0.321
11,A51G C57A,0.399
12,U49G G65U,0.787
13,U49G G65C,0.607
14,A51U U67A,0.976
15,A51U U67G,1
16,A51U U67C,1.01
17,A52C C57G,0.26
18,A51G G56U,0.95
19,A52G A60G,0.922
20,A52G A60C,0.336
21,A52C U67A,0.963
22,A52C A59C,0.527
23,A52C A59G,0.985
